System: Bacillus subtilis
Test: cleaved RNA product abundance (RNA/gDNA barcode ratio) relative to median wild-type variant (ratio to wild type); higher = more accumulation of the downstream cleavage product
Method in brief: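 B. subtilis strains with chromosomally integrated reporter mRNAs (truncated aprE or tetM) holding barcoded, mutagenized RNase Y cleavage-site windows grew in LB at 37°C from OD600 0.0003 to 0.3. Cleaved product abundance is each construct's RNA:gDNA barcode ratio, scaled to the median construct with the unmutated site. It came from sequencing barcodes of gel-selected, reverse-transcribed cleaved RNA and of genomic DNA.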

[1] = experiment (reporter, strain, medium): exp 2b: truncated aprE reporter, strain BJT200, cleavage site: cggR-gapA (positions -7 to +36 mutated)
[2] = experiment (reporter, strain, medium): exp 4a: truncated aprE reporter, strain BJT201 with 2% xylose (RNase J1 expressed), cleavage site: cggR-gapA (positions -7 to +36 mutated)
[3] = experiment (reporter, strain, medium): exp 6: tetM reporter, strain 168, cleavage site: cggR-gapA (positions -7 to +36 mutated)
[4] = experiment (reporter, strain, medium): exp 8a: truncated aprE reporter, strain BJT201 with 2% xylose (RNase J1 expressed), cleavage site: glnRA (positions -5 to +31 mutated)

## ACAGACGAAGGAGCCGCAAAGAAGTTATTAAGGTATGAATAATCCGTCAATATAAATATCTCTCACTTATTTAAA
[1]
  cleaved RNA product abundance: 0.0647
[2]
  cleaved RNA product abundance: 0.0909
[3]
  cleaved RNA product abundance: 0.0676

## ACAGACGAAGGAGCCGCAAAGAAGTTATTAAGGTATGAATAATCCCTCAATGTAAATATCTCTCACTTATTTAAA
[1]
  cleaved RNA product abundance: 0.094
[2]
  cleaved RNA product abundance: 0.0511

## CGACATGTCCCGCTTCTTTCATTAATCCGTCAGCAACTGTTTTGCTATATACATTTAACTTTTAAGAGGAGGAAT
[4]
  cleaved RNA product abundance: 0.483

## CGACATGTCCCGCTTCTTTCATTAATCCGTTGGCAACTGTTTTGCTATGTACATTTACCTTTTAAGAGGAGGAAT
[4]
  cleaved RNA product abundance: 0.1

## ACAGACGAAGGAGCCGCAAAGAAGTTATTAAGTAATGAATAATCCCTCAATATAAATATCTCTCACTTATTTAAA
[1]
  cleaved RNA product abundance: 0.102
[2]
  cleaved RNA product abundance: 0.099

## ACAGACGAAGGAGCCGCAAAGAAGTTATTAAGGGATGAAAAATCCCTCAATTTAAATATCTCTCACTTATTTAAA
[1]
  cleaved RNA product abundance: 0.2

## ACAGACGAAGGAGCCGCAAAGAAGTTATTAAAGGATGAATAATCACTCAATATAAATATCTCTCACTTATTTAAA
[1]
  cleaved RNA product abundance: 0.0796
[2]
  cleaved RNA product abundance: 0.14

## ACAGACGAAGGAGCCGCAAAGAAGTTATGAAGGGATGAATAATCGCTCAATATAAATATCTCTCACTTATTTAAA
[2]
  cleaved RNA product abundance: 0.0808

## ACAGACGAAGGAGCCGCAAAGAAGTTATTAAGGGATGAATAATCCCTCTATATAAACATCTCTCACTTATTTAAA
[1]
  cleaved RNA product abundance: 0.362

## CGACATGTCCCGCTTCTTTCATTAATCCGTTAGCAACTGTTTTGCTATATACATCTACATTTTAAGAGGAGGAAT
[4]
  cleaved RNA product abundance: 1.27

## ACAGACGAAGGAGCCGCAAAGAAGTTATTAACGGATGAATAATCCCTGAATATAAATATCTCTCACTTATTTAAA
[2]
  cleaved RNA product abundance: 0.107

## ACAGACGAAGGAGCCGCAAAGAAGTTATTAAGGGATCCATAATCCCTCAATATAAATATCTCTCACTTATTTAAA
[2]
  cleaved RNA product abundance: 0.481

## ACAGACGAAGGAGCCGCAAAGAAGTTATTAAGCGATGAATAATCTCTCAATATAAATATCTCTCACTTATTTAAA
[2]
  cleaved RNA product abundance: 0.0997

## CGACATGTCCCGCTTCTTTCATTAATCCGTCAGCAACTGTTTTGCTATATACATTAACCTTTTAAGAGGAGGAAT
[4]
  cleaved RNA product abundance: 0.528

## CGACATGTCCCGCTTCTTTCATTAATCCGTTAACAACAGTTTTGCTATATACATTTACCTTTTAAGAGGAGGAAT
[4]
  cleaved RNA product abundance: 0.183

## ACAGACGAAGGAGCCGCAAAGAAGTTATTAAGGGATGATAAATCCCTCAATATAAATATCTCTCACTTATTTAAA
[1]
  cleaved RNA product abundance: 0.648
[2]
  cleaved RNA product abundance: 0.853

## ACAGACGAAGGAGCCGCAAAGAAGTTATTAAGGGATTGAATAATCCCTCAATATAAATATCTCTCACTTATTTAA
[2]
  cleaved RNA product abundance: 0.788

## ACAGACGAAGGAGCCGCAAAGAAGTTATTAAGGGATGAATAATCTCTGAATATAAATATCTCTCACTTATTTAAA
[2]
  cleaved RNA product abundance: 0.634

## CGACATGTCCCGCTTCTTTCATTAATCCGTTAACAACTGTTTTGGTATATACATATAGCTTTTAAGAGGAGGAAT
[4]
  cleaved RNA product abundance: 0.275

## CGACATGTCCCGCTTCTTTCATTAATCCGTTAGCAACCTTTTTGCTATATACATTTACCTTTTAAGAGGAGGAAT
[4]
  cleaved RNA product abundance: 1.44

## ACAGACGAAGGAGCCGCAAAGAAGTTATTAGGGGATGAATAATCCCTCAATATAAATATCTCTCACTTATTTAAA
[1]
  cleaved RNA product abundance: 0.699
[2]
  cleaved RNA product abundance: 0.718
[3]
  cleaved RNA product abundance: 0.377

## ACAGACGAAGGAGCCGCAATGAAGTTATTAAGGTATGAATAATCCCTCAATATAAATATCTCTCACTTATTTAAA
[1]
  cleaved RNA product abundance: 0.109
[2]
  cleaved RNA product abundance: 0.146

## ACAGACGAAGGAGCCGCAAAGTAGTTATTAAGGGATGAATATTCCCTCAATATAAATATCTCTCACTTATTTAAA
[1]
  cleaved RNA product abundance: 0.716

## ACAGACGAAGGAGCCGCAAAGAAGTTATTAAGGGATGAATAATCCCTCAATATAAATACATCTCACTTATTTAAA
[2]
  cleaved RNA product abundance: 0.712

## ACAGACGAAGGAGCCGCAAAGATGTTATTAAGGGATGAATAATCCCTCAATATAAATATCTCTCACTTATTTAAA
[1]
  cleaved RNA product abundance: 0.938
[2]
  cleaved RNA product abundance: 0.996
[3]
  cleaved RNA product abundance: 1.01

## ACAGACGAAGGAGCCGCAAAGAAGTTATTAATGGATGAATAAACCCTCAATATAAATATCTCTCACTTATTTAAA
[1]
  cleaved RNA product abundance: 0.0999
[2]
  cleaved RNA product abundance: 0.107

## CGACATGTCCCGCTTCTTTCATTAATCCGTTAGCAGCTGTTTTTCTATATACATTTACCTTTTAAGAGGAGGAAT
[4]
  cleaved RNA product abundance: 0.778

## CGACATGTCCCGCTTCTTTCATTAATCCGTTCGCAACAGTTTTGCTATATACATTTACCTTTTAAGAGGAGGAAT
[4]
  cleaved RNA product abundance: 0.419

## ACAGACGAAGGAGCCGCAAAGAAGTTAATAAGGGATGAATAATCCCTGAATATAAATATCTCTCACTTATTTAAA
[2]
  cleaved RNA product abundance: 0.533

## CGACATGTCCCGCTTCTTTCATTAATCCGTTAGCAACTGTTTTACTATATACATTTAACTTTTAAGAGGAGGAAT
[4]
  cleaved RNA product abundance: 0.539

## CGACATGTCCCGCTTCTTTCATTATTCCTTTACCAACAGTTTTGCTATATACATTTACCTTTTAAGAGGAGGAAT
[4]
  cleaved RNA product abundance: 0.112

## ACAGACGAAGGAGCCGCAAAAAAGTTATAAAGAGATGAATAATCCCTCAATATAAATATCTCTCACTTATTTAAA
[1]
  cleaved RNA product abundance: 0.14

## ACAGACGAAGGAGCCGCAAAGAAGTTATTAAGGTATGAATACTCCCTCAATATAAATATCTCTCACTTATTTAAA
[1]
  cleaved RNA product abundance: 0.0931
[2]
  cleaved RNA product abundance: 0.135

## ACAGACGAAGGAGCCGCAAAGAAGTTATTAAGAGATAAATAATCCCTCAATATAAATATCTCTCACTTATTTAAA
[1]
  cleaved RNA product abundance: 0.0926
[2]
  cleaved RNA product abundance: 0.0932

## ACAGACGAAGGAGCCGCAGAGAAGTTATTAAGAGATGAATAATCCCTCAATATAAATATCTCTCACTTATTTAAA
[1]
  cleaved RNA product abundance: 0.0994
[2]
  cleaved RNA product abundance: 0.118

## CGACATGTCCCGCTTCTTTCATTATTCCGTTGGCAACTGTTTTGCTATATACATTTACCTTTTAAGAGGAGGAAT
[4]
  cleaved RNA product abundance: 0.851

## ACAGACGAAGGAGCCGCAAAGAAGTATTTAAGGGATGAATAATCCCTCAATATAAATATCTCTCACTTATTTAAA
[1]
  cleaved RNA product abundance: 0.275
[2]
  cleaved RNA product abundance: 0.288

## CGACATGTCCCGCTTCTTTCATTAATCCGTTATCAACTGTTTTGCTATATACATTTAACTTTTAAGAGGAGGAAT
[4]
  cleaved RNA product abundance: 0.291

## ACAGACGAAGGAGCCGCAAAGAAGTAATTAAGTGATGAATAATCCCTCAATATAAATATCTCTCACTTATTTAAA
[2]
  cleaved RNA product abundance: 0.0789

## ACAGACGAAGGAGCCGCAAAGAAGTTATGAAGGGATGAATAATCCTTCAATATAAATATCTCTCACTTATTTAAA
[2]
  cleaved RNA product abundance: 0.441

## ACAGACGAAGGAGCCGCAAAGATGTTATTAAGGGATGAATAATCCCTCACTATAAATATCTCTCACTTATTTAAA
[1]
  cleaved RNA product abundance: 0.166

## ACAGACGAAGGAGCCGCAAAGAAGGTATTAAGGGATGAATAATCCCTCAATATAAATATCTCTCACTTATTTAAA
[1]
  cleaved RNA product abundance: 1.51
[2]
  cleaved RNA product abundance: 1.18
[3]
  cleaved RNA product abundance: 0.983

## ACAGACGAAGGAGCCGCAAAGAAGTTATTAAGGGATGAATAATCCCCCAATATACATATCTCTCACTTATTTAAA
[2]
  cleaved RNA product abundance: 0.446

## ACAGACGAAGGAGCCGCAAAGAAGTTAATAAGGGATGAATAATCCCTCAATATACATATCTCTCACTTATTTAAA
[2]
  cleaved RNA product abundance: 0.313

## ACAGACGAAGGAGCCGCAAAGAAGTTATTAAATGATGAATAATCCATCAATATAAATATCTCTCACTTATTTAAA
[2]
  cleaved RNA product abundance: 0.162

## ACAGACGAAGGAGCCGCAAAGAAGTTATTAAGGGATGAATCATCCCTCAATTTAAATATCTCTCACTTATTTAAA
[1]
  cleaved RNA product abundance: 0.169

## ACAGACGAAGGAGCCGCAAAGAAGTTAATAAGGGATGAATAATTCCTCAATATAAATATCTCTCACTTATTTAAA
[1]
  cleaved RNA product abundance: 0.178
[2]
  cleaved RNA product abundance: 0.198

## CGACATGTCCCGCTTCTTTCATTAATCCGTTAGCAACTGTTTTGCTATATACATTTACATTTTAAGAGGAGGAAT
[4]
  cleaved RNA product abundance: 1.39

## CGACATGTCCCGCTTCTTTCATTAATCCGTTAGCAACTATATTGCTATATACATTTACCTTTTAAGAGGAGGAAT
[4]
  cleaved RNA product abundance: 1.45

## CGACATGTCCCGCTTCTTTCATTAATCCATTAGCAACTGTTTTGCTATATACATTTACATTTTAAGAGGAGGAAT
[4]
  cleaved RNA product abundance: 0.688

## CGACATGTCCCGCTTCTTTCATTAATCCGTTAGCAAATGTTTTGCTATATACATTTACTTTTTAAGAGGAGGAAT
[4]
  cleaved RNA product abundance: 1.2

## ACAGACGAAGGAGCCGCAAAGAAGTTACTAAGGGATGAATAATCCCTAAATATAAATATCTCTCACTTATTTAAA
[2]
  cleaved RNA product abundance: 0.253

## CGACATGTCCCGCTTCTTTCATTAATCCGTTAGCAAGTTTTTTGCTATATACATTTACCTTTTAAGAGGAGGAAT
[4]
  cleaved RNA product abundance: 0.974

Source: the supplement of paper PMC11780869
